Results published in patent US20190145987A1 (UNIVERSIT LIBRE DE BRUXELLES, published 2019).

Target: human DPP6 protein (human, UniProt P42658 117-865, limits assumed)
Assay: affinity versus the human DPP6 protein; method not stated

Chain of human DPP6 protein (P42658 117-865 limits assumed): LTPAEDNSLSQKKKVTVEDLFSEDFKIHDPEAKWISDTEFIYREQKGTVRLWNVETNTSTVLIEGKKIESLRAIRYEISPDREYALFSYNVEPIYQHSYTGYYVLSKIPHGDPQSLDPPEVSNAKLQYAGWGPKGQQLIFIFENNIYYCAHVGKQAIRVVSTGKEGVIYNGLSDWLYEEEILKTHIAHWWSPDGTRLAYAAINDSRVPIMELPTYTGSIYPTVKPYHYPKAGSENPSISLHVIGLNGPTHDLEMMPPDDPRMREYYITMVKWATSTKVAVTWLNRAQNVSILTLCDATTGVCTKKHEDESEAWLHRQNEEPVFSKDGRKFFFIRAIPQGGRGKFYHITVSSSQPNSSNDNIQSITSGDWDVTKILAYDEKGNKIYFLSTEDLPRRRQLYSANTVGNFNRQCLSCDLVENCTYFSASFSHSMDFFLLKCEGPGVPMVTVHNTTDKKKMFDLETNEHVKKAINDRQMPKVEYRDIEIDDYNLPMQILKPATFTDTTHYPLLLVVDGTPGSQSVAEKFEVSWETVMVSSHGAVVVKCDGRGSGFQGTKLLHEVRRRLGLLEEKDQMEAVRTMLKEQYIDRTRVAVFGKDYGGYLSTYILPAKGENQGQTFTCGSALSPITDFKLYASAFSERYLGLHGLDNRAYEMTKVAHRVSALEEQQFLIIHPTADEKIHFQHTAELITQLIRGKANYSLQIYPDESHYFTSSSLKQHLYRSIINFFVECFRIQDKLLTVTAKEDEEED

B1: nanobody 4hD29 (VHH)
VHH: QVQLQESGGGLVQPGGSLRLSCAASGFTFSSNYMTWVRQAPGKGPEWVSGINPDGSSTYYADSVKGRFTISRDNAKNTLYLQMNSLKSEDTALYKCATGAAPRIPTTLRGQGTQVTVSS
notes: also called Nb 4hD29; 4hD29 Nb
A Kd of 1.2 nM was found for B1 in this work.
